Assay results from patent US20020058275A1, “Compositions, kits, and methods for effecting adenine nucleotide modulation of DNA mismatch recognition proteins” (Thomas Jefferson University, priority 1997, published 2002).

What was measured:
Experiment in all cases: GST fusion protein interaction assay
Details in all cases: 35S-labeled IVTT protein as prey
[1] = target: T1, GST-hMSH2 (Homo sapiens, UniProt P43246); format: binding
T1 construct: made in house; host or cells: E. coli (XL-blue), pGEX
T1 sequence (P43246 whole entry): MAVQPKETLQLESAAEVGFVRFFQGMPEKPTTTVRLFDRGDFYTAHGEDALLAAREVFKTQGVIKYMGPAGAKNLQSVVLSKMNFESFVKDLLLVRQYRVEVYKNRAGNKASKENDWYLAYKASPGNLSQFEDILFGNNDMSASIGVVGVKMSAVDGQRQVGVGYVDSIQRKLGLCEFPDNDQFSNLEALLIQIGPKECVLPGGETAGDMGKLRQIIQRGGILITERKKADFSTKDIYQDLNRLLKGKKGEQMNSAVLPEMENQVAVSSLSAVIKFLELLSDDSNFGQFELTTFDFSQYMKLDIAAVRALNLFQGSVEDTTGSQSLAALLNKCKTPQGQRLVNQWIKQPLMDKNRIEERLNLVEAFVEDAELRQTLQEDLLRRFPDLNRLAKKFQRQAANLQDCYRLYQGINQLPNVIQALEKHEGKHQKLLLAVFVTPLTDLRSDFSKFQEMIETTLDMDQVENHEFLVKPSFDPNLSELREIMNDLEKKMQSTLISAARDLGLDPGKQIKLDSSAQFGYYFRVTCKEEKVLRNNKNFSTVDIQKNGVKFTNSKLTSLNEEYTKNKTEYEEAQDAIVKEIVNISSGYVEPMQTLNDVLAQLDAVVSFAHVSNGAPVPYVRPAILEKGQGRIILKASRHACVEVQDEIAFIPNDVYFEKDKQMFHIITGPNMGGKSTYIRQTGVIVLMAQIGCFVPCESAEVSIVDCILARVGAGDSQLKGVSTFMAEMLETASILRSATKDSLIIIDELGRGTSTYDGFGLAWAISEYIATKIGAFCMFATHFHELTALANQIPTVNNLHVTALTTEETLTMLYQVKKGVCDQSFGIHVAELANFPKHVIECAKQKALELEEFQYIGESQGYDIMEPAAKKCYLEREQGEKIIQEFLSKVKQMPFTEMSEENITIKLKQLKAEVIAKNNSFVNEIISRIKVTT
Procedure: (§1) An overnight culture of E. coli XL-blue cells which harbored pGEX-hMSH(X) (i.e. ‘X’ being 2, 3, or 6) was grown in LB with […] ampicillin. 50 milliliter of Luria broth containing ampicillin was inoculated with 1 milliliter of the overnight culture, and the culture was incubated until the optical density, as assessed at 600 nanometers, was about 0.5. IPTG was added to a final concentration of 0.1 millimolar, and the culture container placed in a shaker at 30° C. for 2 hours to generate induced cells. […] GST-fusion protein levels were quantified as described herein. […] GST-fusion protein expression levels were quantitated by Coomassie Brilliant Blue staining of protein separated by SDS-PAGE gels, using BSA as a standard.
(§2) In vitro transcription and translation (IVTT) reactions involving ^35S-Methionine were performed with pET-hMSH(Y) (i.e. where ‘Y’ was 2, 3, or 6) using purified DNA according to the manufacturers recommendations. […] This value was calculated using the specific activity of ^35 S-Methionine, correcting for the number of methionine residues in each IVTT construct and using SDS-PAGE and a Molecular Dynamics Phosphorlmager device equipped with ImageQuant software (Sunnyvale, Calif.). […]

[2] = target: T2, GST-hMSH6 (Homo sapiens, UniProt P52701); format: binding
T2 construct: GST fusion proteins which comprised either full length hMSH3 or full length hMSH6; made in house; host or cells: E. coli (XL-blue), pGEX
T2 sequence (P52701 whole entry, the tested form may be a part): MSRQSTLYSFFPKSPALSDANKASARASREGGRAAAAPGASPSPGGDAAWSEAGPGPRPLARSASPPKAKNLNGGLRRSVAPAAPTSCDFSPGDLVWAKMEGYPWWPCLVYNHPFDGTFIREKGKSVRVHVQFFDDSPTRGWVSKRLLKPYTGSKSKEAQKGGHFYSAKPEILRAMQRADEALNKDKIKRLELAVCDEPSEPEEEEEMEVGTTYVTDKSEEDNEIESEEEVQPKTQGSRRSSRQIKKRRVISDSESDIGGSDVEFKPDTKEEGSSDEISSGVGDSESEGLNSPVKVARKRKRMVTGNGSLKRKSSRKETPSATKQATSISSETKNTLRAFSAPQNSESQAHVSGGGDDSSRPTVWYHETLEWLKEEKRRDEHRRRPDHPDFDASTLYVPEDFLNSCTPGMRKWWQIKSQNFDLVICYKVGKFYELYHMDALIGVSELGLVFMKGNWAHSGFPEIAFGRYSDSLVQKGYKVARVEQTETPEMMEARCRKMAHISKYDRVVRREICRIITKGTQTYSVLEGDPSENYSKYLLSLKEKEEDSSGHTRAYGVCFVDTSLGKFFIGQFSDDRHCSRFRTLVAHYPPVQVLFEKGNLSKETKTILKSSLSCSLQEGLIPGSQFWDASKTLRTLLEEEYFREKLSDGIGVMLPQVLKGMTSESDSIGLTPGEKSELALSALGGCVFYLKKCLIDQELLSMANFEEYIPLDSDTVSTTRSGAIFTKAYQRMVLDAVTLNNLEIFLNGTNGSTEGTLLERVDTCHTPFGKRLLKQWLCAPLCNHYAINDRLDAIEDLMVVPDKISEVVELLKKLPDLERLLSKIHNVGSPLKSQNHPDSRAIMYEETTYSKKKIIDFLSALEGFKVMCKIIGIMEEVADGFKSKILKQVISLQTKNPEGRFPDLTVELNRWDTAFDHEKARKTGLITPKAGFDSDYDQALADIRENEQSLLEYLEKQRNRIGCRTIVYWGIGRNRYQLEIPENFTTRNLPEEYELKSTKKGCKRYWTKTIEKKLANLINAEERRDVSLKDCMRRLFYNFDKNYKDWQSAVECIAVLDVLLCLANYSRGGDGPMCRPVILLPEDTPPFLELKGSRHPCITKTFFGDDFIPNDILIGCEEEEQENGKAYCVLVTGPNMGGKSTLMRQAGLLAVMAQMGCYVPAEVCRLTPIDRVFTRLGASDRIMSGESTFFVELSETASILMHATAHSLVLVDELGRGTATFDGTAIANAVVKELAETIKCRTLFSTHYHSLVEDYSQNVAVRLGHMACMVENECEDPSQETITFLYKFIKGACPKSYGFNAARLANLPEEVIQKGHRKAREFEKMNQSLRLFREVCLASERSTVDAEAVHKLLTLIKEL
Procedure: as §1, §2

[3] = system: GST-hMSH3; format: binding, human
Procedure: as §1, §2

- interaction with GST-hMSH2 fusion protein [1]: did not interact
- interaction with GST-hMSH6 fusion protein [2]: did not interact
B1: hMSH5: human MutS homolog, putative 834-amino-acid protein encoded by clone b29 (SEQ ID NO: 29) (protein)
chain: MASLGANPRRTPQGPRPGAASSGFPSPAPVPGPREAEEEEVEEEEELAEIHLCVLWNSGYLGIAYYDTSDSTIHFMPDAPDHESLKLLQRVLDEINPQSVVTSAKQDENMTRFLGKLASQEHREPKRPEIIFLPSVDFGLEISKQRLLSGNYSFIPDAMTATEKILFLSSIIPFDCLLTVRALGGLLKFLGRRRIGVELEDYNVSVPILGFKKFMLTHLVNIDQDTYSVLQIFKSESHPSVYKVASGLKEGLSLFGILNRCHCKWGEKLLRLWFTRPTHDLGELSSRLDVIQFFLLPQNLDMAQMLHRLLGHIKNVPLILKRMKLSHTKVSDWQVLYKTVYSALGLRDACRSLPQSIQLFRDIAQEFSDDLHHIASLIGKVVDFEGSLAENRFTVLPNIDPEIDEKKRRLMGLPSFLTEVARKELENLDSRIPSCSVIYIPLIGFLLSIPRLPSMVEASDFEINGLDFMFLSEEKLHYRSARTKELDALLGDLHCEIRDQETLLMYQLQCQVLARAAVLTRVLDLASRLDVLLALASAARDYGYSRPRYSPQVLGVRIQNGRHPLMELCARTFVPNSTECGGDKGRVKVITGPNSSGKSIYLKQVGLITFMALVGSFVPAEEAEIGAVDAIFTRIHSCESISLGLSTFMIDLNQVAKAVNNATAQSLVLIDEFGKGTNTVDGLALLAAVLRHWLARGPTCPHIFVATNFLSLVQLQLLPQGPLVQYLTMETCEDGNDLVFFYQVCEGVAKASHASHTAAQAGLPDKLVARGKEVSDLIRSGKPIKPVKDLLKKNQMENCQTLVDKFMKLDLEDPNLDLNVFMSQEVLPAATSIL
modifications: left off: a dimerising Fc or GST; large carriers; small tags and cut ends
- interaction with GST-hMSH3 fusion protein [3]: did not interact
